± gives the standard deviation of the averaged measurements.
Tested on: ATP
Assay: switch fluorescence ratio, 500 uM ATP over buffer (Cy3 cluster intensity, sum of 5 cycles each) (fold (ratio)); higher = stronger signal-on switching upon ATP binding; sequences stand for … in TCGTCGGCAGCGTCAGATGTGTATAAGAGACAGTTTTTTTTTTTTTTTTTTTTTTTTT…TC
Settings: aptamer strand: ATP DNA aptamer (quencher-CACCTGGGGGAGTATTGCGGAGGAAGG + anchor), 100 nM annealed; ATP concentration: 500 uM
Method in brief: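 For every switch-domain sequence, the fluorescence ratio is the mean of per-cluster values, each being summed target-cycle Cy3 intensity over summed buffer-cycle Cy3 intensity. Clusters outside 100-1000 RFU were excluded. On a modified Illumina MiSeq flow-cell, the Cy3-labelled switching-strand clusters were annealed to 100 nM quencher-labelled ATP aptamer, imaged in selection buffer and then after 15 min with 500 uM ATP at 22 °C. Five such cycles were run, with NaOH stripping and re-annealing between them.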
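Note: ATP exposure 15 min at 22 °C before imaging.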

Sequence	switch fluorescence ratio
TTTATTGTTA	1.05 ± 0.068
TTTATTGTTT	1 ± 0.011
TTTATTTACG	1.033 ± 0.0082
TTTATTTCTG	0.959 ± 0.02
TTTATTTCTT	0.98163 ± 0.0001
TTTATTTGAC	1.03 ± 0.053
TTTCAAAATT	0.994 ± 0.018
TTTCAACCTT	1.42 ± 0.071
TTTCAACGAT	1 ± 0.029
TTTCAAGGGC	1.04 ± 0.027
TTTCAAGTGC	1.03 ± 0.064
TTTCAATCTT	1.36 ± 0.62
TTTCAATGTC	0.97 ± 0.11
TTTCACAATC	1.07 ± 0.076
TTTCACAGTA	1.03 ± 0.03
TTTCACATGG	1.052 ± 0.0044
TTTCACTTGT	1.034 ± 0.0018
TTTCAGGCTT	1.14 ± 0.13
TTTCAGGGGG	1.05 ± 0.091
TTTCAGGGTC	1.15 ± 0.19
TTTCAGTACA	0.988 ± 0.01
TTTCAGTCGC	0.9995 ± 0.0047
TTTCAGTTGT	1.01 ± 0.016
TTTCATAGTC	1 ± 0.025
TTTCATCGTA	0.99 ± 0.049

Sequence	switch fluorescence ratio
TTTCATGGGG	1.014 ± 0.0049
TTTCATGTAT	1.01 ± 0.012
TTTCATGTCT	0.992 ± 0.019
TTTCATGTGG	0.995 ± 0.044
TTTCATTTTT	0.999 ± 0.035
TTTCCACCGA	1.14 ± 0.16
TTTCCATCAC	1 ± 0.042
TTTCCATTCT	1 ± 0.015
TTTCCCGGAT	1.1 ± 0.14
TTTCCCGGTG	2.13 ± 0.039
TTTCCCGTAT	1.07 ± 0.049
TTTCCGAATG	1.13 ± 0.026
TTTCCGGGGG	0.996 ± 0.022
TTTCCGTTTC	1.06 ± 0.04
TTTCCTGGGC	1.37 ± 0.61
TTTCCTTTGA	1.06 ± 0.07
TTTCGAAACT	1 ± 0.038
TTTCGAACGG	1.03 ± 0.028
TTTCGAATAA	0.986 ± 0.0099
TTTCGACTTT	1 ± 0.038
TTTCGAGGAA	1.03 ± 0.019
TTTCGAGTTT	0.983 ± 0.012
TTTCGATATT	0.989 ± 0.019
TTTCGATTGT	0.988 ± 0.024
TTTCGCACTG	1.1 ± 0.018

Sequence	switch fluorescence ratio
TTTCGCGGGC	1.94 ± 0.53
TTTCGCGGTT	1.02 ± 0.043
TTTCGCGTGG	0.971 ± 0.028
TTTCGGAGA	1.11 ± 0.17
TTTCGGATGT	0.984 ± 0.04
TTTCGGATTT	0.983 ± 0.012
TTTCGGCCAG	1.13 ± 0.17
TTTCGGCTAT	1.12 ± 0.15
TTTCGGGAAT	1.08 ± 0.11
TTTCGGGCAT	1.19 ± 0.31
TTTCGGGGGT	1.07 ± 0.25
TTTCGGTATT	1.02 ± 0.02
TTTCGGTCGG	1.04 ± 0.046
TTTCGGTTGC	1.07 ± 0.11
TTTCGTATCG	1.01 ± 0.021
TTTCGTATGG	1 ± 0.057
TTTCGTGAAA	0.9975 ± 0.0019
TTTCGTGTGG	1.01 ± 0.086
TTTCGTGTTG	1.01 ± 0.017
TTTCGTGTTT	0.998 ± 0.028
TTTCGTTAAC	1.06 ± 0.028
TTTCTAGACC	1.1 ± 0.12
TTTCTAGGGG	1.01 ± 0.028
TTTCTAGGTT	1 ± 0.041
TTTCTAGTCG	0.971 ± 0.019

Sequence	switch fluorescence ratio
TTTCTCATTT	0.972 ± 0.021
TTTCTCGGCT	1 ± 0.035
TTTCTCGTAC	1.11 ± 0.012
TTTCTCTGAT	0.9813 ± 0.0042
TTTCTCTTAG	0.9889 ± 0.0072
TTTCTGAGCT	1.08 ± 0.068
TTTCTGCTTT	1.04 ± 0.057
TTTCTGGCTA	1.08 ± 0.053
TTTCTGGGGA	0.991 ± 0.034
TTTCTGGGGT	1.01 ± 0.054
TTTCTGGGTG	1.13 ± 0.038
TTTCTGGTTT	1 ± 0.016
TTTCTGTAAT	1.05 ± 0.03
TTTCTGTGCT	0.97009 ± 7e-05
TTTCTTCAAA	0.997 ± 0.02
TTTCTTCAGC	1.21 ± 0.19
TTTCTTGCTG	1.07 ± 0.047
TTTCTTGGCG	1 ± 0.03
TTTCTTTTTG	0.99 ± 0.034
TTTGAAAATA	0.962 ± 0.018
TTTGAAAGCT	1.164 ± 0.0067
TTTGAAGTTT	1 ± 0.018
TTTGAATAGG	1.01 ± 0.016
TTTGAATCGG	0.97 ± 0.027
TTTGAATCTT	1 ± 0.02

Sequence	switch fluorescence ratio
TTTGAATGCT	0.952 ± 0.046
TTTGAATGTA	1.011 ± 0.0078
TTTGAATTAT	0.975 ± 0.021
TTTGAATTTC	0.988 ± 0.021
TTTGACAGCG	1.02 ± 0.066
TTTGACGACT	1.01 ± 0.025
TTTGACGGTG	1.01 ± 0.034
TTTGACTATG	0.999 ± 0.022
TTTGAGGAGG	0.9876 ± 0.0046
TTTGAGGGTA	1.03 ± 0.1
TTTGAGGTGT	1.03 ± 0.012
TTTGAGTCCG	1.04 ± 0.065
TTTGAGTGAG	0.9892 ± 0.0098
TTTGAGTGAT	1.01 ± 0.057
TTTGAGTGCG	0.973 ± 0.025
TTTGATAAAT	1 ± 0.014
TTTGATAGTT	1.01 ± 0.018
TTTGATATAT	0.972 ± 0.012
TTTGATATTA	0.994 ± 0.026
TTTGATCAGA	1 ± 0.025
TTTGATCGTT	1.01 ± 0.011
TTTGATGGCT	1.02 ± 0.039
TTTGATGTAA	1.01 ± 0.026
TTTGATGTAC	1.05 ± 0.013
TTTGATGTTT	1 ± 0.031

Sequence	switch fluorescence ratio
TTTGATTAGG	1.01 ± 0.04
TTTGCAAACT	0.994 ± 0.017
TTTGCAACGA	1.25 ± 0.31
TTTGCAATTA	1.57 ± 0.5
TTTGCACGTT	1.03 ± 0.037
TTTGCAGGGT	1.03 ± 0.025
TTTGCATACT	2.75 ± 2.4
TTTGCATGCA	1.03 ± 0.02
TTTGCCAAAC	1.52 ± 0.55
TTTGCCGATG	0.985 ± 0.013
TTTGCCGGAC	1.04 ± 0.062
TTTGCCGGGG	1.02 ± 0.06
TTTGCCTCAA	1.01 ± 0.011
TTTGCCTTTG	0.9991 ± 0.0076
TTTGCGCCGT	1.02 ± 0.058
TTTGCGGACC	1.05 ± 0.025
TTTGCGTTTC	1.07 ± 0.039
TTTGCTAAAT	1.02 ± 0.02
TTTGCTAGGT	1.02 ± 0.031
TTTGCTGACG	1.02 ± 0.055
TTTGCTGTTG	0.965 ± 0.037
TTTGCTGTTT	1.01 ± 0.013
TTTGCTTACG	1.1 ± 0.13
TTTGCTTTAA	1 ± 0.067
TTTGCTTTTG	0.988 ± 0.021

Sequence	switch fluorescence ratio
TTTGGACTAT	1.012 ± 0.0038
TTTGGAGGAT	0.978 ± 0.029
TTTGGAGGGC	1.06 ± 0.065
TTTGGATACA	0.9739 ± 0.0012
TTTGGATCGT	0.981 ± 0.025
TTTGGATGGA	1.02 ± 0.023
TTTGGATGGT	0.996 ± 0.02
TTTGGCGCAC	1.06 ± 0.015
TTTGGCGCTG	0.984 ± 0.019
TTTGGCGTGC	1 ± 0.045
TTTGGCTGGG	0.985 ± 0.02
TTTGGCTTAC	1.55 ± 0.72
TTTGGCTTGG	0.992 ± 0.031
TTTGGCTTTT	1.06 ± 0.18
TTTGGGAAAA	1.05 ± 0.038
TTTGGGACGT	0.978 ± 0.03
TTTGGGAGGG	0.969 ± 0.02
TTTGGGATTA	0.983 ± 0.041
TTTGGGCCCG	0.9936 ± 0.0014
TTTGGGCGGG	1.01 ± 0.033
TTTGGGGACG	1.01 ± 0.019
TTTGGGGAGC	0.986 ± 0.045
TTTGGGGCAG	1.06 ± 0.078
TTTGGGGCGT	1 ± 0.035
TTTGGGGCT	0.957 ± 0.039

Sequence	switch fluorescence ratio
TTTGGGGGAG	1.01 ± 0.027
TTTGGGGGGG	1 ± 0.051
TTTGGGGTAA	0.991 ± 0.029
TTTGGGGTGC	1.09 ± 0.12
TTTGGGGTGT	1.01 ± 0.06
TTTGGGGTTC	1.02 ± 0.044
TTTGGGTATG	0.992 ± 0.026
TTTGGGTCTT	1.02 ± 0.013
TTTGGGTTCG	0.986 ± 0.019
TTTGGGTTGG	1.03 ± 0.13
TTTGGTAAGT	1.022 ± 0.01
TTTGGTACTT	0.986 ± 0.039
TTTGGTAGGG	1.02 ± 0.021
TTTGGTGCTG	0.983 ± 0.06
TTTGGTGGTA	0.984 ± 0.03
TTTGGTTCAG	0.994 ± 0.018
TTTGGTTTGT	1.1 ± 0.19
TTTGGTTTTG	0.995 ± 0.038
TTTGTAAGCC	1.06 ± 0.011
TTTGTAAGTT	0.995 ± 0.03
TTTGTAATTG	1.008 ± 0.01
TTTGTAATTT	1.01 ± 0.021
TTTGTAGACG	1.04 ± 0.062
TTTGTAGATC	1.06 ± 0.066
TTTGTAGGGT	0.971 ± 0.011

— the supplement of paper PMC10126150
